The target in experiment [1] is T1, SETD3 (Homo sapiens, UniProt Q86TU7).
T1 construct: GST (cleaved yes); made in house; host or cells: Escherichia coli BL21(DE3) CodonPlus
T1 sequence (Q86TU7 1-594): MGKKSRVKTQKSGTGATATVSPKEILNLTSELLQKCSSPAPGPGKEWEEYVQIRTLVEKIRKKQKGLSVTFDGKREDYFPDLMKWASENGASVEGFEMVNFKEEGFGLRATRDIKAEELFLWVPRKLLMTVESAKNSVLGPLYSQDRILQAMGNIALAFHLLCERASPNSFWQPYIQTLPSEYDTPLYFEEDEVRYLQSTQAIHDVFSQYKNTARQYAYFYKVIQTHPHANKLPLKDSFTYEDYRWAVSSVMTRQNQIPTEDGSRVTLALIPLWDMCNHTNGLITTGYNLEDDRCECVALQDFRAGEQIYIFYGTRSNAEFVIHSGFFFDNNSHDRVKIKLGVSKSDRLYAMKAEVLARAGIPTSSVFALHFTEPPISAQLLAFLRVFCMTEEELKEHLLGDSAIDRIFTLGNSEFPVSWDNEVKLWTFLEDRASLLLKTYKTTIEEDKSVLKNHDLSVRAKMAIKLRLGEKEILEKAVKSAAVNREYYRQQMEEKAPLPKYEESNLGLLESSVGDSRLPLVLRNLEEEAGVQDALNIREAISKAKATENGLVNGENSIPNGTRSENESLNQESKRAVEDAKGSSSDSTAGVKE
The experiment can be described thus: Ki measurement of sinefungin against SAM for SETD3 (Supplementary Fig. 2a, b). Type of experiment: biochemical. The protocol: Recombinant human SETD3 (pXC2003) was expressed as a GST-fusion[22] in Escherichia coli BL21(DE3) CodonPlus^TM cells (Stratagene). The SETD3 mutants at residue 255 (N255A; pXC2093 and N255V; pXC2094) were generated with Q5 Site-Directed Mutagenesis Kit (New England Biolabs), confirmed by sequencing and the same protocol for expression and purification were followed. Briefly, the purification was conducted in a BIO-RAD NGC^TM system using a three-column chromatography of glutathione-sepharose, HiTrap Q-HP and Superdex 200. The GST tag was removed by PreScisson Protease (purified in-house). The purified SETD3 proteins at a concentration ~25–35 mg/ml were kept at −80 °C in storage buffer for future use [20 mM Tris (pH 8.0), 200 mM NaCl, 5% glycerol, and 0.5 mM tris (2-carboxyethyl) phosphine (TCEP)].
For Ki measurement of sinefungin (Supplementary Fig. 2a, b), a reaction mixture contained 20 mM Tris/HCl (pH 8.0), 50 mM NaCl, 0.1 mg/ml BSA, 1 mM DTT, 0.18 µM SETD3, 40 µM H73 (residues 66–80) peptide and first incubated with varied concentration of sinefungin (0–100 µM) for 30 min, reactions were then started by addition of 2–8 µM SAM. After 30 min at room temperature, the reactions were terminated by the addition of TFA to 0.1% (v/v). […]

In experiment [2] the target is Recombinant human SETD3 (pXC2003), wild type (human) (UniProt Q86TU7).
Experiment [3] shares this target. This is another data set of the same source.

Where two headings read alike, the source gives them in different places.

As for `Nc1ncnc2c1ncn2[C@@H]1O[C@H](C[C@@H](N)CC[C@H](N)C(=O)O)[C@@H](O)[C@H]1O` [sinefungin, adenosyl ornithine], the “mode of inhibition of SETD3” value in experiment [1] (Lineweaver-Burk, H73(66–80) 40 µM, 0–100 µM sinefungin, 2–8 µM SAM, pH 8.0) is “SAM-competitive inhibitor”. Moreover, the “support of methyl transfer / inhibition” value in experiment [1] (Supplementary Fig. 2) was “does not support the methyl transfer, and thus functions as an inhibitor”. On to “actin H73 peptide (residues 66-80) (from UniProt P60709 66-80)”, for which the Km of steady-state methylation kinetics (MTase-Glo), pH 8.0, room temperature in experiment [2] stood at 21 μM.

“actin H73K peptide (residues 66-80) (from UniProt P60709 66-80)”: in experiment [2], the Km of steady-state methylation kinetics (MTase-Glo), pH 10.5, 37 °C was 430 μM. Regarding “actin H73K peptide (residues 66-88) (from UniProt P60709 66-88)”, the Km of steady-state methylation kinetics (MTase-Glo), pH 10.5, 37 °C in experiment [3] was determined as 5.2 μM.
